{"source": "the nanobody polyreactivity screen of Harvey et al. (2022)"}
{"assay": "yeast display, Sf9 membrane polyspecificity reagent, FACS + sequencing; frameworks hold sequencing errors", "method_in_brief": "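Nanobodies came from a synthetic yeast display library in Saccharomyces cerevisiae BJ5465, induced with galactose for 36–48 hours and stained for 1 hour at 4 °C with 10% biotinylated, detergent-solubilized Sf9 membrane reagent. Cells were enriched on streptavidin microbeads and then FACS-sorted, with low and high (top ~1%) gates set on anti-HA fluorescence for expression and streptavidin fluorescence for reagent binding. Each polyreactivity label reflects the gate a clone came from. Genes were amplified by colony PCR, sequenced by MiSeq 2 × 250 and filtered by CDR length.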"}
{"sequence": "QVQLVESGGGLDQAGGSLRLSCAASGITFYGYTMGLYRQAPGKERELVATITRGGSTYYADSVKGRFTISRDNAKNTVYLQMNSLKPEDTAVYYCAAESQYDYGVEYDYWVQGTQVTVSS", "polyreactivity (PSR sort gate)": "low polyreactivity"}
{"sequence": "QVQLVESGGGLDQAGGSLRLSCAASGLIFRPYDMGWYSQAPGKERELVAAISNGDSTNYADSVKGRFTISRDNAKNTDYLEMNSLKPEDTAVYYCNAAIPSWLEYEYWGQGTQVTVSS", "polyreactivity (PSR sort gate)": "low polyreactivity"}
{"sequence": "QVQLVESGGGLDQAGGSLRLSCAASGLISYRNAMGWYRQAPGKERELVAAISSDGSTYYADSVKGRFTISRDNAKNSVYLQMNSLKPEDTAVYYCNADVFRKFGSPSAYKSHRYDYWGQGTQVTVSS", "polyreactivity (PSR sort gate)": "low polyreactivity"}
{"sequence": "QVQLVESGGGLDQAGGSLRLSCAASGLTFAYYTMGWSRQEPGKERELVADISRSGGSTYYADSVKGRFTISRDNAKNTVYLQMNSLKPEDTAVYYCAAYRYGSRYGYEYWGQGTQVTVSS", "polyreactivity (PSR sort gate)": "high polyreactivity"}
{"sequence": "QVQLVESGGGLDQAGGSLRLSCAASGLTFGTYPMGWYRQAPGKETELVAAIRSGGSTNYADSVKGRFTISRDNAKNTVYLQMNSLKPEDTAVYYCNSVTVYYRKYEFWGQGTQVTVSS", "polyreactivity (PSR sort gate)": "high polyreactivity"}
{"sequence": "QVQLVESGGGLDQAGGSLRLSCAASGLTFQLYTMGWYRQAHGKERELVAAISRSGTRTYYADSVKGRFTISLDNAKNTVYLQMNSLKPEDTAVYYCAARTDGYRNNYWGQGTQVTVSS", "polyreactivity (PSR sort gate)": "high polyreactivity"}
{"sequence": "QVQLVESGGGLDQAGGSLRLSCAASGNTFHPYAMGWYRQAPGKERELVAAITKSGGSTYYADSVKGRFTISRDNAKKTVYLQMNSLKPEDTAVYYCNADDGVTEYDYWGQGTQVTVSS", "polyreactivity (PSR sort gate)": "low polyreactivity"}
{"sequence": "QVQLVESGGGLDQAGGSLRLSCAASGRIFCQYAMGWYRQAPGKERELVAAMSRSGGSTYYAHSVKGRFTISRDNAKNTVYLQMTSLKPEDTAVYYCAARKASGDPGSAGRPEYYYWGQGNQVTVSS", "polyreactivity (PSR sort gate)": "high polyreactivity"}
{"sequence": "QVQLVESGGGLDQAGGSLRLSCAASGRIIRFYAMAWYRQAPGKERELVAAISSRGGSTYYADSVKGRFTISRDNAKNTVYLQKNSLKPEDTAVYYCAKKTWRDYAYNYWGQGTQVTVSS", "polyreactivity (PSR sort gate)": "high polyreactivity"}
{"sequence": "QVQLVESGGGLDQAGGSLRLSCAASGRISGYYDMVWYRQAPGKERELVATITSDGGTNYADSVKGRFTISRDNAKNCVYLQINSLKPEDTAVYYCAAYGWYTKWHFAYGYWGQGTQVTVSS", "polyreactivity (PSR sort gate)": "low polyreactivity"}
{"sequence": "QVQLVESGGGLDQAGGSLRLSCAASGRTFNPYVLGWYRQAPGKERELVAVITSSGDSTYYADSVKGRFTISRDNAKNTVYLQMNSLKPEDTAVYYCNADYLYYDYDYWGQGTQVTVSS", "polyreactivity (PSR sort gate)": "high polyreactivity"}
{"sequence": "QVQLVESGGGLDQAGGSLRLSCAASGRTFTGNAMGWYRQAPGKERELVAAISSRGSSTYYADSVKGRFTISRDNAKNTVYLQMNSLKPEDTAVYYCAAVWPRPKYVYESDYWGQGTQVTVSS", "polyreactivity (PSR sort gate)": "high polyreactivity"}
{"sequence": "QVQLVESGGGLDQAGGSLRLSCAASGRTFYRNVMGWYRQAHGKERELVAAISSRGGSTYYADSVKGRFTISRDNAKNTVYLQMNSLKPEDTAVYYCAAYYYRRRYGGKYDYWGQGTQVTVSS", "polyreactivity (PSR sort gate)": "high polyreactivity"}
{"sequence": "QVQLVESGGGLDQAGGSLRLSCAASGSIFDANAMVWYRQAPGKERELVAAITSSGGITYYADSVKGRFTISRDNAKNTVYLHLNSLKPADTAVYYCAAEYGYIDYSYLYWYDYWGQGTQVTVSS", "polyreactivity (PSR sort gate)": "high polyreactivity"}
{"sequence": "QVQLVESGGGLDQAGGSLRLSCAASGSIFEPNAMVWYRQAPGKERELVAAITGGGGTNYADSVKGRFTLSRDNAKYTVYLQMNSLKPEDTAVYYCAKEVDHGDASDMDYWGQGTQVTVSS", "polyreactivity (PSR sort gate)": "low polyreactivity"}
{"sequence": "QVQLVESGGGLDQAGGSLRLSCAASGSIFFTYVMGWYRQAPGKERQLVAAISSDDITNYADSVKGRFTISRDNAKNTVYLQMNSLKPEDTAVYYCNADTTLYPYYDYGYYDYDYWGQGTQVTVSS", "polyreactivity (PSR sort gate)": "low polyreactivity"}
{"sequence": "QVQLVESGGGLDQAGGSLRLSCAASGSIFKLNARGWYREAPGKERELVAAITSVGRTYYADSVKGRFTISRDNAKKTVYLQMNSLKPEDTAVYYCGAARYGVYWYGYWGQGTQVTVSS", "polyreactivity (PSR sort gate)": "high polyreactivity"}
{"sequence": "QVQLVESGGGLDQAGGSLRLSCAASGSIFNFYALGWYRQAPGKERELVAAISWSAGSTYYADSVKGRFTISRDYAKNTVYLQMNSLKPEDTAVYYCAADRYAYDWIQYYYHFLYDYWGQGTQVTVSS", "polyreactivity (PSR sort gate)": "low polyreactivity"}
{"sequence": "QVQLVESGGGLDQAGGSLRLSCAASGSIFPFYAMGWYRQAPGKERELVAAISSRGGSTYYADSVKGRFTISRDNAKNTVYLQMNSLKPEDTAVYYCAARDYSIKVRLGYWGQGTHVTVSS", "polyreactivity (PSR sort gate)": "low polyreactivity"}
{"sequence": "QVQLVESGGGLDQAGGSLRLSCAASGSIFSHYAMGWYRQAPGKERELVAAISRSGGSTYYADSVKGRFTISRDNAKNTVYLQMNSLKPDDTAVYYCSKEGDSGYWFDYWGQGTQVTVSS", "polyreactivity (PSR sort gate)": "low polyreactivity"}
{"sequence": "QVQLVESGGGLDQAGGSLRLSCAASGSIFTDNAMGWYRQAPGKERELVASITIAGSTKYADSVKGRFTISRDNAKKTVYLQMNSLKPEDTAVYYCNAEASDLHDYWGQGTQVTVSS", "polyreactivity (PSR sort gate)": "low polyreactivity"}
{"sequence": "QVQLVESGGGLDQAGGSLRLSCAASGSIFVNYARGWYRQAPGKERELVAAITRSGGRTYYADSVKGRFTISRDNAKNTVYLQMNSLKPEVTAVYYCAARRGYAGNRDGYWGQGTQVNVSS", "polyreactivity (PSR sort gate)": "high polyreactivity"}
{"sequence": "QVQLVESGGGLDQAGGSLRLSCAASGSIFVYYAMGWYRHAPGKEMELVAAITSGTSTNYADSVKGRFTISRDNAQNTVYLQMNSLKPEDTAVYYCAADHYYTGTTYNYWGQGNQVTVSS", "polyreactivity (PSR sort gate)": "low polyreactivity"}
{"sequence": "QVQLVESGGGLDQAGGSLRLSCAASGSIFYRNAIGWYRQAPGKDREFVAAITLRGGSTYYADSVKGRFTISRDNAKNTVYLQMNSLKPEDTAVYYCAADLLLYSSQDNDYWGQGTQVTVSS", "polyreactivity (PSR sort gate)": "low polyreactivity"}
{"sequence": "QVQLVESGGGLDQAGGSLRLSCAASGSIFYVNAMGWYRQAPGKERELVAAITSGGSTSYADSVKGRFTISRDNAKNTVYLQMNSLKPEDTAVYYCAADWDYPEQYRVNYEYGYWGLGTQVTVSS", "polyreactivity (PSR sort gate)": "low polyreactivity"}
{"sequence": "QVQLVESGGGLDQAGGSLRLSCAASGSIFYYYVMGWYRQAPGKERELVAAITNSDRTYYADSVKGRFTISRDNAKNTVYLQMNSLKLEDTAVYYCNADWFDQYYRDGLRGRYGYWRQGTQVTVSS", "polyreactivity (PSR sort gate)": "low polyreactivity"}
{"sequence": "QVQLVESGGGLDQAGGSLRLSCAASGSIIGIYAMGWYRQAPGKERELVAAISWSGGSTYYADSVKGRFTISRDNAKNTVYLQMNSLKPEDTAVYYCAARGHYQYYWGQGTQVTVSS", "polyreactivity (PSR sort gate)": "low polyreactivity"}
{"sequence": "QVQLVESGGGLDQAGGSLRLSCAASGSTFARNVMGWYRLAPGKERELVAAISWRGGRTYYADSVKGRFTISRDNAKNTVYLQMNSLKPEDTAVYYCAAGRSFRGSYWYEYWGQGTQVTVSS", "polyreactivity (PSR sort gate)": "high polyreactivity"}
{"sequence": "QVQLVESGGGLDQAGGSLRLSCAASGSTFESNAMGWYRQAPGKERELVAAISWRVGSTYYADSVKGRFTISRDNAKNTDYLQMHSLKPEDTAVYYCASKGWYSHYGGYDYWGQGTQVTVSS", "polyreactivity (PSR sort gate)": "low polyreactivity"}
{"sequence": "QVQLVESGGGLDQAGGSLRLSCAASGSTFGWYAMGWYIQAPGTERELVAAINSSGGTTYYADSVKGLFTISRDNAMNTVYLQMNSLKPEDTAVHYCAARQVYSVGKDTRSVGYWGQGTQVTGSS", "polyreactivity (PSR sort gate)": "low polyreactivity"}
{"sequence": "QVQLVESGGGLDQAGGSLRLSCAASGSTFGYYAMAWYRQSPGKERELVAAITSGASTNYADSVKGRFTISRDNAKNTVYLQMNSLKPEDTAVYYCAAGFQTRTPLNEFDYWGQGTQVTLSS", "polyreactivity (PSR sort gate)": "low polyreactivity"}
{"sequence": "QVQLVESGGGLDQAGGSLRLSCAASGSTFRYSVMGWSRQAPGKERELVAGISYRGGTTYYADSVKGRFTISRDNAKNTVYLQMNSLKPEDTAVYYCAADSTPYVLSGNYDYWGQGTQVTVSS", "polyreactivity (PSR sort gate)": "low polyreactivity"}
{"sequence": "QVQLVESGGGLDQAGGSLRLSCAASGSTFYAYAMGWYRQAPGKERELVAANSSDGTNYADSVKGRFTLSRDNAKNTVYLQMNSLKPEDTAVYYCAKDSVWGAKNLTSYKYYYWGQGTQVTVSS", "polyreactivity (PSR sort gate)": "low polyreactivity"}
{"sequence": "QVQLVESGGGLDQAGGSLRLSCAASGYIFYRNAMGCYRQAPGKERELVAAITYTGGRTYYADSVKGRFTISRDNAKNTVYLQMNSLKPEDTAVYYCNADGRVFVVRPYYDYEYWGQGTQVTVSS", "polyreactivity (PSR sort gate)": "low polyreactivity"}
{"sequence": "QVQLVESGGGLDQAGGSLRLSCAASVSNFEYYVMGWYRQAPGTERELVAVIRRSSGSTYYADSVKGRFTISRDNAKNTVYLQMNSLKPEDTAVYYCAARRYEPIIWHRMDYCGQGTQVTVSS", "polyreactivity (PSR sort gate)": "low polyreactivity"}
{"sequence": "QVQLVESGGGLDQAGGSLRLSCAAYGNTFRGYTMGWYRQAPGKEREFVAAISWSGGRTNYADSVKGRFTISRDNAKNTVYLQMNSLKPEDTAVYYCARDYRARRWGMDYWGQGTQVTVSS", "polyreactivity (PSR sort gate)": "high polyreactivity"}
{"sequence": "QVQLVESGGGLDQAGGSLRLSCAAYGSIFYGYAMGWYRTAPGKERELVAAITSGGSTYYADSVKGRFTISRDNAKNTVYLQMNSLKPEDTAVYYCAATFCTWYSWYDYWGQGTQVTVSS", "polyreactivity (PSR sort gate)": "high polyreactivity"}
{"sequence": "QVQLVESGGGLDQAGGSLRLSCADSGYILDRNAMGWYRHAPGKETALVAVISWGGTRTYYADSVKGRFTISRDNAKNTVYLQMISLKPEDTAVYYCARYPYYYGYAGRYDYWGQGTQVTVSS", "polyreactivity (PSR sort gate)": "high polyreactivity"}
{"sequence": "QVQLVESGGGLDQAGGSLRLSCAPSGRIFYTNAMGWYRQAPGKERELVAAISSGGGRTYYADSVKGRFTISRDNAKNTVYLQMNSLKPEDTAVYYCAASNVGYRSYSRGFDYWGQGTQVTVSS", "polyreactivity (PSR sort gate)": "high polyreactivity"}
{"sequence": "QVQLVESGGGLDQAGGSLRLSCASSGIIFWWNTMGGYRQAPGQESEMVAAISTGGSTNYADSVKGRFTISRDNAKNTVYLQMNSLKPEDTAVYYCNADWTDGDWADMDYWGQGTQVTVSS", "polyreactivity (PSR sort gate)": "low polyreactivity"}
{"sequence": "QVQLVESGGGLDQAGGSLRLSSAASGFTISWYDMGWYRQAPGKERELVAAITYTGGSTYYADSVKGRFTISRDNAKNTVYFQMNSLKPEDTAVYYCNADEPSSNMDYWGQGTQVTVSS", "polyreactivity (PSR sort gate)": "low polyreactivity"}
